Results: the supplement of paper PMC9233669
This sample holds only a part of the variants without activity.

tested on: biotinyl-Phe-oxazolone; assay: self-aminoacylation, catalytic enhancement (BFO) (fold over background); higher = more active; k-Seq, kA / k0A0; sequences stand for … in GGGAAUGGAUCCACAUCUACGAAUUC…UUCACUGCAGACUUGACGAAGCUG
How it was run: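 The uncatalyzed rate is the low-activity peak of a bimodal Gaussian fit, and catalytic enhancement is median kA divided by it. The kA values came from pseudo-first-order fits, with 1000 bootstraps, of per-sequence fraction reacted measured by streptavidin capture, triplicate qPCR and Illumina sequencing. Mutagenized RNA pools with a 21-nt variable region (0.43 μM) were reacted with each biotinyl-aminoacyl-oxazolone at 2–1250 μM in 50 μL HEPES/NaCl/KCl/MgCl2/CaCl2 buffer with 5% acetonitrile, pH 6.9–7.0, for 90 minutes at room temperature.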

Row | Sequence | self-aminoacylation
1 | AAGGUUGCUAAUAGUCGCACG [Fam3.1 aminoacylation ribozyme variant] | 2.39
2 | AUUCACCUACGUCAUCGGCUG [Fam2.2 aminoacylation ribozyme variant] | 2.24
3 | AUUAACCUAGGUCAUCGUGUG [Fam2.2 aminoacylation ribozyme variant] | 3.17
4 | CUACAUCAAACAAGCGGUCUG [Fam1A.1 aminoacylation ribozyme variant] | 4.11
5 | AUUCAACUAGGUCAUCGUGUG [Fam2.2 aminoacylation ribozyme variant] | 5.52
6 | CUACUUCAGACAUUCGGUCUG [Fam1A.1 aminoacylation ribozyme variant] | 6.22
7 | ACGUUUGCUAAUAGUCGGAAG [Fam3.1 aminoacylation ribozyme variant] | 3.98
8 | AUUACCCUGGUCAUCGUGUGG [Fam2.1 aminoacylation ribozyme variant] | 2.9
9 | CUACGUCAAACGAUCGGUCUG [Fam1A.1 aminoacylation ribozyme variant] | 3.76
10 | CUUCAUCAAACAAUCGGUCUG [Fam1A.1 aminoacylation ribozyme variant] | 2.05
11 | AAGUUCGGUAAUAGUCGCAAG [Fam3.1 aminoacylation ribozyme variant] | 3.24
12 | CCUCACUUCAAGCAAUCGGAC [Fam1B.1 aminoacylation ribozyme variant] | 2.16
13 | CCCCACUACAAGCAAUCGGUC [Fam1B.1 aminoacylation ribozyme variant] | 2.24
14 | CCACACUUCAAGAAUUCGGUC [Fam1B.1 aminoacylation ribozyme variant] | 7.52
15 | CCACACUUCAAACAACCGGUC [Fam1B.1 aminoacylation ribozyme variant] | 2.26
16 | AUUAGCCUCGUCAUCGAGUGA [Fam2.1 aminoacylation ribozyme variant] | 2.19
17 | AGUACCCUGGUCAUCGAGUUA [Fam2.1 aminoacylation ribozyme variant] | 2.58
18 | UAGUUUGCUCAUAGUCGCAAG [Fam3.1 aminoacylation ribozyme variant] | 2.67
19 | AUUCAACUAGGUCGUCGGGUG [Fam2.2 aminoacylation ribozyme variant] | 6.9
20 | CAGUUUCCUAAUAGUCGCAAG [Fam3.1 aminoacylation ribozyme variant] | 2.17

Row | Sequence | self-aminoacylation
21 | AUUACCCUGGUCAGCGAUUGA [Fam2.1 aminoacylation ribozyme variant] | 2.52
22 | AUUCACCUAGUUCAUCGGGAG [Fam2.2 aminoacylation ribozyme variant] | 2.23
23 | AUUCAGCUAGGUCAUCGGAUG [Fam2.2 aminoacylation ribozyme variant] | 2.91
24 | AUUAGCCUGGUCAUCGAGUGC [Fam2.1 aminoacylation ribozyme variant] | 2.04
25 | AAGGUUGCCAAUAGUCGCAAG [Fam3.1 aminoacylation ribozyme variant] | 2.4
26 | AUUCACCUAGGUGAUCGGGUC [Fam2.2 aminoacylation ribozyme variant] | 2.84
27 | AAGUUUGCUGACAGUCGCAAG [Fam3.1 aminoacylation ribozyme variant] | 2.12
28 | AAGUUUGCUAACAGCCGCAAG [Fam3.1 aminoacylation ribozyme variant] | 3.09
29 | UAGUUGGCUAAUAGUCGCAAG [Fam3.1 aminoacylation ribozyme variant] | 2.38
30 | AUUCACCUAGGUCAUCGUGCG [Fam2.2 aminoacylation ribozyme variant] | 5.13
31 | CCACUUCAAACAAUCGAUCUG [Fam1A.1 aminoacylation ribozyme variant] | 4.61
32 | AAGUUUUCUAAUAGUCGCAAU [Fam3.1 aminoacylation ribozyme variant] | 2.37
33 | AAGUUUCCUAAUAGUUGCAAG [Fam3.1 aminoacylation ribozyme variant] | 2.63
34 | AAGUUUUCUCAUAGUCGCAAG [Fam3.1 aminoacylation ribozyme variant] | 3.59
35 | CUACUUCAAACAAUCUGUCUG [Fam1A.1 aminoacylation ribozyme variant] | 3.23
36 | AAGUUUUCCAAUAGUCGCAAG [Fam3.1 aminoacylation ribozyme variant] | 2.43
37 | AAGUUUGCUUAUAGUCGCAAA [Fam3.1 aminoacylation ribozyme variant] | 2.38
38 | CUAAUUCAAAUAAUCGGUCUG [Fam1A.1 aminoacylation ribozyme variant] | 2.58
39 | CUACGUCAAACAAUUGGUCUG [Fam1A.1 aminoacylation ribozyme variant] | 2.06
40 | UUUACCCUGGUCGUCGAGUGA [Fam2.1 aminoacylation ribozyme variant] | 5.7

Row | Sequence | self-aminoacylation
41 | AUUACCCUGGUCGUCGAGUGG [Fam2.1 aminoacylation ribozyme variant] | 2.7
42 | AAGUUUGCUAAUGGUCGCAAC [Fam3.1 aminoacylation ribozyme variant] | 6.25
43 | AUUCACCUAGCUCGUCGGGUG [Fam2.2 aminoacylation ribozyme variant] | 4.07
44 | ACGUUUGCUAAUAGUCGCAGG [Fam3.1 aminoacylation ribozyme variant] | 3.87
45 | AGGUUUUCUAAUAGUCGCAAG [Fam3.1 aminoacylation ribozyme variant] | 2.83
46 | AAGUUUACUAAUAGUCGAAAG [Fam3.1 aminoacylation ribozyme variant] | 2.51
47 | AUUCACCUAGUUCAUCGGGUU [Fam2.2 aminoacylation ribozyme variant] | 5.74
48 | CCCCACUUCAAGCAAUAGGUC [Fam1B.1 aminoacylation ribozyme variant] | 2.02
49 | AUUCACCUACUUCAUCGGGUG [Fam2.2 aminoacylation ribozyme variant] | 3.44
50 | AAUACCCUGGUCAUCGAGUUA [Fam2.1 aminoacylation ribozyme variant] | 2.17
51 | AGGUUUGCUUAUAGUCGCAAG [Fam3.1 aminoacylation ribozyme variant] | 2.89
52 | CUACUUGAAACACUCGGUCUG [Fam1A.1 aminoacylation ribozyme variant] | 3.53
53 | AAGCUUCCUAAUAGUCGCAAG [Fam3.1 aminoacylation ribozyme variant] | 2.32
54 | ACACACUUCAAGCGAUCGGUC [Fam1B.1 aminoacylation ribozyme variant] | 2.18
55 | AUUCACCUAGGUCCUCGUGUG [Fam2.2 aminoacylation ribozyme variant] | 5.79
56 | AAGUUUCCUAAUGGUCGCAAG [Fam3.1 aminoacylation ribozyme variant] | 2.62
57 | CUAAAUCAAACAAUCGGUCUG [Fam1A.1 aminoacylation ribozyme variant] | 3.19
58 | AAGCUUGCUAAUAGUUGCAAG [Fam3.1 aminoacylation ribozyme variant] | 2.19
59 | AAGUUCGCUAAUAGUCUCAAG [Fam3.1 aminoacylation ribozyme variant] | 2.72
